T1: Regnase-1 phosphorylation by TBK1 (Homo sapiens, UniProt Q5D1E8)
T1 construct: GST (N, cleaved yes); made in house; host or cells: Expi293 cells
T1 sequence (Q5D1E8 1-599): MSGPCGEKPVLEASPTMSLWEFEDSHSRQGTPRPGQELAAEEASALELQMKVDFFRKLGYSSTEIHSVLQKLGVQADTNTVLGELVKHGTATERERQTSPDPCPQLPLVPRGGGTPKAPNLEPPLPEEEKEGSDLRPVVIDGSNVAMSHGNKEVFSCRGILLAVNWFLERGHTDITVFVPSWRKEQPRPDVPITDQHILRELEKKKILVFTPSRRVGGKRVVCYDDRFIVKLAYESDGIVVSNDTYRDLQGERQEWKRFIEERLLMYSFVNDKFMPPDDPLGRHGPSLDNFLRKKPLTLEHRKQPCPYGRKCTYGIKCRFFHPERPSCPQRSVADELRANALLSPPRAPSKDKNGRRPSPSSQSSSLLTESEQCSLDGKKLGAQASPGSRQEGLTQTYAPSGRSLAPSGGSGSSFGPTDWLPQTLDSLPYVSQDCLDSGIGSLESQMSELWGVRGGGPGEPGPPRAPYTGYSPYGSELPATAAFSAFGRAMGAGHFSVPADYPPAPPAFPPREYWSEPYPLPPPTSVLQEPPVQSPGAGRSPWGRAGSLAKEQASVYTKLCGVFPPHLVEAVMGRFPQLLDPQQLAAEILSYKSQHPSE

T2: FL_Reg1 (human full-length Regnase-1) (Homo sapiens, UniProt Q5D1E8)
T2 construct: made in house; host or cells: Expi293 cells
T2 sequence (Q5D1E8 1-599): T1 sequence (Q5D1E8 1-599)

B1: REB0007: anti-Regnase-1 antibody; heavy chain SEQ ID NO: 24, light chain SEQ ID NO: 25 (antibody)
heavy: QEQLEESGGDLVKPEGSLTLTCTASGFSFNSRYWICWVRQAPGKGLEWIGCIVSGDSNTYYASWAKGRFTISKTSSTTVTLQMTSLTAADTATYFCARWYTSSRPGLWGPGTLVTVSSGQPKAPSVFPLAPCCGDTPSSTVTLGCLVKGYLPEPVTVTWNSGTLTNGVRTFPSVRQSSGLYSLSSVVSVTSSSQPVTCNVAHPATNTKVDKTVAPSTCSKPTCPPPELLGGPSVFIFPPKPKDTLMISRTPEVTCVVVDVSQDDPEVQFTWYINNEQVRTARPPLREQQFNSTIRVVSTLPITHQDWLRGKEFKCKVHNKALPAPIEKTISKARGQPLEPKVYTMGPPREELSSRSVSLTCMINGFYPSDISVEWEKNGKAEDNYKTTPAVLDSDGSYFLYNKLSVPTSEWQRGDVFTCSVMHEALHNHYTQKSISRSPGK
light: DVVMTQTPASVSEPVGGTVTIKCQASQSISSYLSWYQQKPGQPPKLLIYSATNLASGVSSRFKGSRFGTEFTLTISDLECDDAATYYCQCSYYVSGFAFGGGTEVVVKGDPVAPTVLIFPPAADQVATGTVTIVCVANKYFPDVTVTWEVDGTTQTTGIENSKTPQNSADCTYNLSSTLTLTSTQYNSHKEYTCKVTQGTTSVVQSFNRGD
B2: REB0014: anti-Regnase-1 antibody; heavy chain SEQ ID NO: 26, light chain SEQ ID NO: 27 (antibody)
heavy: QSLEESGGGLVKPGGTLTLTCKASGIDFSSYYYMCWVRQAPGKGLEWIACIYSGDGSSYYVSWANGRFTISKTSSATVTLQMTSLTAADTATYFCARDLGNLWGPGTLVTVSSGQPKAPSVFPLAPCCGDTPSSTVTLGCLVKGYLPEPVTVTWNSGTLTNGVRTFPSVRQSSGLYSLSSVVSVTSSSQPVTCNVAHPATNTKVDKTVAPSTCSKPTCPPPELLGGPSVFIFPPKPKDTLMISRTPEVTCVVVDVSQDDPEVQFTWYINNEQVRTARPPLREQQFNSTIRVVSTLPITHQDWLRGKEFKCKVHNKALPAPIEKTISKARGQPLEPKVYTMGPPREELSSRSVSLTCMINGFYPSDISVEWEKNGKAEDNYKTTPAVLDSDGSYFLYNKLSVPTSEWQRGDVFTCSVMHEALHNHYTQKSISRSPGK
light: QVLTQTPASVSAAVGGTVTINCQASQSVYKNSGLSWFQQKPGQSPKRLIYSASTLDSGVPSRFKGSGSGTQFTLTISDVQCDDAATYYCLGIYVCSSVDCGAFGGGTEVVVKGDPVAPTVLIFPPAADQVATGTVTIVCVANKYFPDVTVTWEVDGTTQTTGIENSKTPQNSADCTYNLSSTLTLTSTQYNSHKEYTCKVTQGTTSVVQSFNRGDC
B3: REB0022: anti-Regnase-1 antibody; heavy chain SEQ ID NO: 28, light chain SEQ ID NO: 29 (antibody)
heavy: QEQLEESGGDLVKPEGSLTLTCTASGGSFSSRYWMCWVRQAPGKGLEWIACIVIGDRNNYYASWAKGRFTISKTSSTTVTLQMTSLTAADTATYFCARWHSSTAPSLWGPGTLVTVSSGQPKAPSVFPLAPCCGDTPSSTVTLGCLVKGYLPEPVTVTWNSGTLTNGVRTFPSVRQSSGLYSLSSVVSVTSSSQPVTCNVAHPATNTKVDKTVAPSTCSKPTCPPPELLGGPSVFIFPPKPKDTLMISRTPEVTCVVVDVSQDDPEVQFTWYINNEQVRTARPPLREQQFNSTIRVVSTLPITHQDWLRGKEFKCKVHNKALPAPIEKTISKARGQPLEPKVYTMGPPREELSSRSVSLTCMINGFYPSDISVEWEKNGKAEDNYKTTPAVLDSDGSYFLYNKLSVPTSEWQRGDVFTCSVMHEALHNHYTQKSISRSPGK
light: DVVMTQTPASVSEPVGGTVTINCQASQSISSYLSWYQQKPGQPPKLLIYKASTLASGVSSRFKGSGSGTEFTLTISDLECADAATYYCQCSYYVSGFVFGGGTEVVVKGDPVAPTVLIFPPAADQVATGTVTIVCVANKYFPDVTVTWEVDGTTQTTGIENSKTPQNSADCTYNLSSTLTLTSTQYNSHKEYTCKVTQGTTSVVQSFNRGDC

molecular target: T3, Peptide 2 ([…]-NH2), partial peptide of human Regnase-1 (Homo sapiens, UniProt Q5D1E8); test: Binding of anti-non-phosphorylated Regnase-1 peptide antibodies to bead-bound Peptide 2 (iQue screener); details: streptavidin-immobilized beads; histograms FIG. 32
T3 construct: made in house; host or cells: chemical synthesis
Method: (§1) • Biotin-Conjugated FL_Reg1, Biotin-Conjugated Peptide • […], biotin-conjugated peptide • AFPPREYWSEPYPLPPPTC-NH2, and biotinylated BSA (Sigma, A8549) were each bound to streptavidin-immobilized beads.
(§2) These beads were mixed with each anti-Regnase-1 antibody, and they were allowed to react. Thereafter, Anti-Rabbit IgG1 Alexa488 (molecular probes, A21244) was mixed and reacted, and analysis was performed with iQue screener PLUS (intellicyt). Data was analyzed with FlowJo ver10.

| Molecule | binding to Peptide 2 compared with biotinylated BSA |
| --- | --- |
| B1 | bound more strongly |
| B2 | bound more strongly |
| B3 | bound more strongly |

molecular target: T1, Regnase-1 phosphorylation by TBK1; test: Inhibitory activity of anti-Regnase-1 antibodies against Regnase-1 phosphorylation by TBK1 (Phos-tag gel, western blotting); format: biochemical; details: antibody at final concentrations of 16.7 μg/mL and 5.0 μg/mL; relative to Control group
Method: To a solution (ATP buffer) containing Kinase Assay Buffer III (manufactured by SignalChem) supplemented with 2 mM DTT, 100 μM sodium vanadate, 2 mM manganese chloride, and 15 μM ATP, dephosphorylated Regnase-1 was mixed at 150 nM. Four microliters of this solution and 4 μL of HEPES Buffered Saline containing 50 μg/mL or 15 μg/mL of anti-Regnase-1 antibody were mixed, and this was allowed to react for one hour. This reaction solution was mixed with 4 μL of ATP buffer containing 150 nM of each kinase (IKKβ or TBK1), and further reacted for one hour. After the reaction, 4 μL of 4× Laemmli Sample buffer (manufactured by Bio-Rad) was added and this mixture was incubated at 95° C. for five minutes for protein denaturation treatment. This sample was ice-cooled for three minutes, and 10 μL of it was added to SuperSep Phos-tag 7.5% 17 wells (manufactured by Wako) placed in EasySeparator (manufactured by Wako). As a marker, 10 μL of WIDE-VIEW Prestained Protein Size Marker III (manufactured by Wako) was added, and the EasySeparator was filled with Tris-Glycine SDS buffer (manufactured by Takara). After electrophoresis at 175 V for 70 minutes, this was washed with 10% Tris-Glycine SDS buffer containing 5 mM EDTA and 20% MeOH for 10 minutes. After two further washings, washing was performed with 10% Tris-Glycine SDS buffer containing 20% MeOH for ten minutes. The washed gel was placed in the Trans-Blot Turbo Transfer Pack (manufactured by Bio-Rad), and transferred using the BioRad Transfer Turbo (manufactured by Bio-Rad). […] Chemiluminescence was detected using ImageQuant LAS4000 mini (manufactured by GE Healthcare).
A band for phosphorylated Regnase-1 was detected due to treatment with each kinase (FIG. 33A). Band densities were measured with Image Quant-TL (manufactured by GE Healthcare). The relative value for the band density of the sample to which each compound was added was calculated, considering the band density of the kinase-added sample of the Control group, to which no compound was added, as 1. […]

| Molecule | density of the phosphorylated Regnase-1 band in TBK1 treatment |
| --- | --- |
| B1 | decreased |
| B2 | decreased |
| B3 | decreased |

molecular target: T2, FL_Reg1 (human full-length Regnase-1); test: Binding of anti-non-phosphorylated Regnase-1 peptide antibodies to bead-bound full length human Regnase-1 (iQue screener); details: streptavidin-immobilized beads; histograms FIG. 32
Method: as §1, §2

| Molecule | binding to FL_Reg1 compared with biotinylated BSA |
| --- | --- |
| B1 | bound more strongly |
| B2 | bound more strongly |
| B3 | bound more strongly |

From patent US20250018014A1, “METHOD FOR TREATING AND/OR PREVENTING REGNASE-1-RELATED DISEASE” (OSAKA UNIVERSITY, priority 2018, published 2025)
